The values below come from IntAct's records for PubMed 25910212.

B1: ATP synthase mitochondrial F1 complex assembly factor 2 (Homo sapiens), Q8N5M1 (parent)
chain: MWRSCLRLRDGGRRLLNRPAGGPSASMSPGPTIPSPARAYAPPTERKRFYQNVSITQGEGGFEINLDHRKLKTPQAKLFTVPSEALAIAVATEWDSQQDTIKYYTMHLTTLCNTSLDNPTQRNKDQLIRAAVKFLDTDTICYRVEEPETLVELQRNEWDPIIEWAEKRYGVEISSSTSIMGPSIPAKTREVLVSHLASYNTWALQGIEFVAAQLKSMVLTLGLIDLRLTVEQAVLLSRLEEEYQIQKWGNIEWAHDYELQELRARTAAGTLFIHLCSESTTVKHKLLKE
partner: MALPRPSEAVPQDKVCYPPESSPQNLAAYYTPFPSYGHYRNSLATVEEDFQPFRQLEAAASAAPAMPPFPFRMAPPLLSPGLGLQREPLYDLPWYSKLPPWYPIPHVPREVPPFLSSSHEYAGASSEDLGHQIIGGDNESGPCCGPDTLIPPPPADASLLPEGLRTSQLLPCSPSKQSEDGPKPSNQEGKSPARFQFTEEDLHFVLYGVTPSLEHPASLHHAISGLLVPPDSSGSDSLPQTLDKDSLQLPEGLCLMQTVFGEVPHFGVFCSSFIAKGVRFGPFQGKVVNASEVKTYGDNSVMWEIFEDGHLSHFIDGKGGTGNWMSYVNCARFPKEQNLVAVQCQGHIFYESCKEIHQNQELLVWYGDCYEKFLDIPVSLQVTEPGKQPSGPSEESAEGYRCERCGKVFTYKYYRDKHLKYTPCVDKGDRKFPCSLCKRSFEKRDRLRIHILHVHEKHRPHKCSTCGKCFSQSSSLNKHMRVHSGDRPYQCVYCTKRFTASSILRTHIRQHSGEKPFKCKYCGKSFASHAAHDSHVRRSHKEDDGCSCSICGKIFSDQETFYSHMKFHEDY
B2: U4/U6 small nuclear ribonucleoprotein Prp31 (Homo sapiens), Q8WWY3 (parent)
chain: MSLADELLADLEEAAEEEEGGSYGEEEEEPAIEDVQEETQLDLSGDSVKTIAKLWDSKMFAEIMMKIEEYISKQAKASEVMGPVEAAPEYRVIVDANNLTVEIENELNIIHKFIRDKYSKRFPELESLVPNALDYIRTVKELGNSLDKCKNNENLQQILTNATIMVVSVTASTTQGQQLSEEELERLEEACDMALELNASKHRIYEYVESRMSFIAPNLSIIIGASTAAKIMGVAGGLTNLSKMPACNIMLLGAQRKTLSGFSSTSVLPHTGYIYHSDIVQSLPPDLRRKAARLVAAKCTLAARVDSFHESTEGKVGYELKDEIERKFDKWQEPPPVKQVKPLPAPLDGQRKKRGGRRYRKMKERLGLTEIRKQANRMSFGEIEEDAYQEDLGFSLGHLGKSGSGRVRQTQVNEATKARISKTLQRTLQKQSVVYGGKSTIRDRSSGTASSVAFTPLQGLEIVNPQAAEKKVAEANQKYFSSMAEFLKVKGEKSGLMST
partner: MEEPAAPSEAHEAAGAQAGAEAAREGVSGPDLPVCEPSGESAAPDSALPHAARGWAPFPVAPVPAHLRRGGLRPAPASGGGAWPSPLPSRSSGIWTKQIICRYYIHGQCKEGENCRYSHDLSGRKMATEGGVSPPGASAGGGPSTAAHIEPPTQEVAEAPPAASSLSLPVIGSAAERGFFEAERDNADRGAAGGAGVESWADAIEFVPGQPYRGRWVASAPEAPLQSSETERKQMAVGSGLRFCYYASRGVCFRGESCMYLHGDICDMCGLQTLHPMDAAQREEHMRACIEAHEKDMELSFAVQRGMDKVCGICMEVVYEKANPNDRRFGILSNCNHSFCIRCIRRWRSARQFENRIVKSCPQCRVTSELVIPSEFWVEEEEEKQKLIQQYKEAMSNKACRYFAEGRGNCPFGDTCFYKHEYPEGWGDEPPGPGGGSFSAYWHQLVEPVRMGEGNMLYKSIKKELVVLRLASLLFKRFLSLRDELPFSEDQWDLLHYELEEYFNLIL
B3: Estrogen receptor beta (Homo sapiens), Q92731-3 (parent)
chain: MDIKNSPSSLNSPSSYNCSQSILPLEHGSIYIPSSYVDSHHEYPAMTFYSPAVMNYSIPSNVTNLEGGPGRQTTSPNVLWPTPGHLSPLVVHRQLSHLYAEPQKSPWCEARSLEHTLPVNRETLKRKVSGNRCASPVTGPGSKRDAHFCAVCSDYASGYHYGVWSCEGCKAFFKRSIQGHNDYICPATNQCTIDKNRRKSCQACRLRKCYEVGMVKCGSRRERCGYRLVRRQRSADEQLHCAGKAKRSGGHAPRVRELLLDALSPEQLVLTLLEAEPPHVLISRPSAPFTEASMMMSLTKLADKELVHMISWAKKIPGMRGNA
partner: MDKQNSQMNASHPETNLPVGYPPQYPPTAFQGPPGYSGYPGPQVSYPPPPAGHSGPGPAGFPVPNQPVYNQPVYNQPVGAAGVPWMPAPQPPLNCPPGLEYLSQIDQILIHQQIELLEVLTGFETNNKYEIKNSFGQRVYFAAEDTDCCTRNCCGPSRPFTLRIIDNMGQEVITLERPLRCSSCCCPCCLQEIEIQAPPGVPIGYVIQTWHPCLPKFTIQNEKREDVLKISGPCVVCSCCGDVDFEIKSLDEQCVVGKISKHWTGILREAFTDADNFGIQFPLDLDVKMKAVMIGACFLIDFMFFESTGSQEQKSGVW
B4: Ribonucleoside-diphosphate reductase subunit M2 B (Homo sapiens), Q7LG56 (parent)
chain: MGDPERPEAAGLDQDERSSSDTNESEIKSNEEPLLRKSSRRFVIFPIQYPDIWKMYKQAQASFWTAEEVDLSKDLPHWNKLKADEKYFISHILAFFAASDGIVNENLVERFSQEVQVPEARCFYGFQILIENVHSEMYSLLIDTYIRDPKKREFLFNAIETMPYVKKKADWALRWIADRKSTFGERVVAFAAVEGVFFSGSFAAIFWLKKRGLMPGLTFSNELISRDEGLHCDFACLMFQYLVNKPSEERVREIIVDAVKIEQEFLTEALPVGLIGMNCILMKQYIEFVADRLLVELGFSKVFQAENPFDFMENISLEGKTNFFEKRVSEYQRFAVMAETTDNVFTLDADF
partner: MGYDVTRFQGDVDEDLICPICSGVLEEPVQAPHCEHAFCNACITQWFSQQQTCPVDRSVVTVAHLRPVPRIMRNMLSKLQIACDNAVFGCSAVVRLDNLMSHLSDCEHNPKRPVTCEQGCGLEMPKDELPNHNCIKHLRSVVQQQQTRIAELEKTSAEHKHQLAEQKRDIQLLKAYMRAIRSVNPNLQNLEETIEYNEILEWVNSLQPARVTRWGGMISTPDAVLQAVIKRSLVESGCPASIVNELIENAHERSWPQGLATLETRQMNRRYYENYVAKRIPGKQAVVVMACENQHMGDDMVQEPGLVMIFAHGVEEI
B5: Alpha-crystallin B chain (Homo sapiens), P02511 (parent)
chain: MDIAIHHPWIRRPFFPFHSPSRLFDQFFGEHLLESDLFPTSTSLSPFYLRPPSFLRAPSWFDTGLSEMRLEKDRFSVNLDVKHFSPEELKVKVLGDVIEVHGKHEERQDEHGFISREFHRKYRIPADVDPLTITSSLSSDGVLTVNGPRKQVSGPERTIPITREEKPAVTAAPKK
partner: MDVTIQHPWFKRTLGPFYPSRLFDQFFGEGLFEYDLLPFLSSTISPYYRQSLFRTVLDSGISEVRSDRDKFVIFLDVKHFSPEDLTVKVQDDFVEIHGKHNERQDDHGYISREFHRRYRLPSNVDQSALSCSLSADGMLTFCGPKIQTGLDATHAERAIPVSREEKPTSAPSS
B6: ATP synthase mitochondrial F1 complex assembly factor 2 (Homo sapiens), Q8N5M1 (parent)
chain: B1 chain
partner: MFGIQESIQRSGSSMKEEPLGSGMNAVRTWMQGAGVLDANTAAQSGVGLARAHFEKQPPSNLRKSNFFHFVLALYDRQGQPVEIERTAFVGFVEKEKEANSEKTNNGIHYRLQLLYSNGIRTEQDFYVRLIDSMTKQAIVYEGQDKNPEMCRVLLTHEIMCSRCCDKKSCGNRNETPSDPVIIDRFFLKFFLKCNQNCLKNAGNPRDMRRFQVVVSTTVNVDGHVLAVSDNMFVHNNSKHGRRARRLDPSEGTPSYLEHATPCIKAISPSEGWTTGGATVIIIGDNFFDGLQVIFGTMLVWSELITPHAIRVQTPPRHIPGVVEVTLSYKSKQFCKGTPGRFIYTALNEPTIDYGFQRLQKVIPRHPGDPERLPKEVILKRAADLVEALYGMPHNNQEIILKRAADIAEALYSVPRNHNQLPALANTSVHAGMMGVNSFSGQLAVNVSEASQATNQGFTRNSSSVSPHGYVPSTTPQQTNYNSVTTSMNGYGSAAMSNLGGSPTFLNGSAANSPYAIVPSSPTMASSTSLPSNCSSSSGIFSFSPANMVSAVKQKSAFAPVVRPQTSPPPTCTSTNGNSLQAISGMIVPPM
B7: U4/U6 small nuclear ribonucleoprotein Prp31 (Homo sapiens), Q8WWY3 (parent)
chain: B2 chain

Variants of B1 are the subject of the first assay. The note with it: with prd14_human PRDM14, Q9GZV8.
For W94R, the “effect of a mutation on the interaction” value is listed as “disrupting interaction strength”.

In the next assay the parent is B2. The note with it: with mkrn3_human MKRN3, Q13064.
As for L107V, the “effect of a mutation on the interaction” value is on record as “with no effect”.

Variants of B3 are the subject of the next assay. To be noted: with pls1_human PLSCR1, O15162.
As to F289L, the “effect of a mutation on the interaction” value is reported as “with no effect”.

The next assay covers variants of B4. To be noted: with rnf41_human RNF41, Q9H4P4.
As for C236F, the “effect of a mutation on the interaction” value is listed as “with no effect”.

The variants in the next assay derive from B5. The note with it: with cryaa_human CRYAA.
Consider R120G, for which the “effect of a mutation on the interaction” value is given as “with no effect”.
The same measure, in the same setting: under R56W stands “with no effect”; under D140N, “with no effect”.
On to P20S, for which the “effect of a mutation on the interaction” value is reported as “with no effect”.

Another assay covers variants of B6. To be noted: with coe1_human EBF1, Q9UH73.
As to W94R, the “effect of a mutation on the interaction” value was “disrupting interaction strength”.

In another assay the parent is B7. To be noted: with pnma1_human PNMA1, Q8ND90.
L107V: the “effect of a mutation on the interaction” value is recorded as “with no effect”.

In the next assay the parent is B7. To be noted: with lzts2_human LZTS2, Q9BRK4.
L107V: the “effect of a mutation on the interaction” value is given as “with no effect”.

In the next assay the parent is B7. The note with it: with pak5_human PAK5, Q9P286.
Chain of pak5_human PAK5, Q9P286 (Q9P286 whole entry, looked up): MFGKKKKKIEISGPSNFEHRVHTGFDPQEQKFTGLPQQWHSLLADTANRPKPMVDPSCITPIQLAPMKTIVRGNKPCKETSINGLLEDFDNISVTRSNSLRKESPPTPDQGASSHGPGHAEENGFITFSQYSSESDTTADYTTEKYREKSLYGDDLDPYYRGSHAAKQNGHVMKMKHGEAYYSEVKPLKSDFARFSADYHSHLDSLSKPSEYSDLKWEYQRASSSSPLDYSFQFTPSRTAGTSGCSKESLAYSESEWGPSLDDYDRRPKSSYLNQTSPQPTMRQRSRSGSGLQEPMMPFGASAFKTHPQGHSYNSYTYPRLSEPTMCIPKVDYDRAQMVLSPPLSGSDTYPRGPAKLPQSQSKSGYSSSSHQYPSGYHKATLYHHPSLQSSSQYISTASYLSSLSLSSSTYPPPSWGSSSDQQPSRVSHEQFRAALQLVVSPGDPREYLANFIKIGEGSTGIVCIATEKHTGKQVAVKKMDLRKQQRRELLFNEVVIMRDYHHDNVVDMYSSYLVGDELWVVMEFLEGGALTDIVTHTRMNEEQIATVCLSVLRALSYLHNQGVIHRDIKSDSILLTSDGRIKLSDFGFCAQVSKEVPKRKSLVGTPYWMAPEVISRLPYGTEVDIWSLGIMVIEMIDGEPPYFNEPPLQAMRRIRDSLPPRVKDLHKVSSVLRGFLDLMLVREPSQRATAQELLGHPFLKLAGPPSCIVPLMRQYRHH
Take L107V: the “effect of a mutation on the interaction” value was “with no effect”.

The variants in the next assay derive from B7. To be noted: with myome_human PDE4DIP.
Consider L107V, for which the “effect of a mutation on the interaction” value is “with no effect”.

Variants of B7 are the subject of a further assay. To be noted: with tsg10_human TSGA10, Q9BZW7.
Chain of tsg10_human TSGA10, Q9BZW7 (Q9BZW7 whole entry): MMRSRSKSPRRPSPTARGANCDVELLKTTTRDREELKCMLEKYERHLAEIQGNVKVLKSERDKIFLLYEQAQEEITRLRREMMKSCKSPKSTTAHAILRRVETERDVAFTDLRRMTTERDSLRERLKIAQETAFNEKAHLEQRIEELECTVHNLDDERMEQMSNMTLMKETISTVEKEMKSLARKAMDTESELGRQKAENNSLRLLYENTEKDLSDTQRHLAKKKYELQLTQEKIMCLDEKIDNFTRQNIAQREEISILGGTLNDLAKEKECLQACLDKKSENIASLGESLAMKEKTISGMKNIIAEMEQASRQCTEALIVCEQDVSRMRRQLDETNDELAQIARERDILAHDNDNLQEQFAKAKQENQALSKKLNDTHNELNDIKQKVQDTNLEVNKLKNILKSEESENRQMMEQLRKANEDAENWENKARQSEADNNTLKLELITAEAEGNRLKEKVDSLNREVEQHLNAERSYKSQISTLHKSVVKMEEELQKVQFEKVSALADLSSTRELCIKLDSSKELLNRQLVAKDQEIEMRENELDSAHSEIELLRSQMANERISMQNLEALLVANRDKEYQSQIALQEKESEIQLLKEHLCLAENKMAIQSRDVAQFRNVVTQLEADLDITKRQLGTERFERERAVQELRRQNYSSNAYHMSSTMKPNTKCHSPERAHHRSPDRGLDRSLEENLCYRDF
As to L107V, the “effect of a mutation on the interaction” value is on record as “with no effect”.

In another assay the parent is B7. The note with it: with ppip1_human PSTPIP1, O43586.
L107V: the “effect of a mutation on the interaction” value was “with no effect”.

The variants in another assay derive from B7. The note with it: with fbln4_human EFEMP2, O95967.
Chain of fbln4_human EFEMP2, O95967 (O95967 whole entry): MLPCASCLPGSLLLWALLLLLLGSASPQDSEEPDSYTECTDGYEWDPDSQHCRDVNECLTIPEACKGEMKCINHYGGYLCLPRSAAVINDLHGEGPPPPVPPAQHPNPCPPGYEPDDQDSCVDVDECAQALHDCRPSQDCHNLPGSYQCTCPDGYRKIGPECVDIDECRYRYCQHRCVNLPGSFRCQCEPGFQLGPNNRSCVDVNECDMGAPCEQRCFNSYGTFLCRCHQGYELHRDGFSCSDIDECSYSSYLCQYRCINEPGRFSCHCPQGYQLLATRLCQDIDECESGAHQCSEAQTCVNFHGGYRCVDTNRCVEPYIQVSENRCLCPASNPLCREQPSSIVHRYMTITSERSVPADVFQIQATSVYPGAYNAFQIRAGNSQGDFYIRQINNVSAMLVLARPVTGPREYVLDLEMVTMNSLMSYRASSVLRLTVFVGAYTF
As for L107V, the “effect of a mutation on the interaction” value is recorded as “with no effect”.

In a further assay the parent is B7. To be noted: with ldoc1_human LDOC1, O95751.
Chain of ldoc1_human LDOC1, O95751 (O95751 whole entry): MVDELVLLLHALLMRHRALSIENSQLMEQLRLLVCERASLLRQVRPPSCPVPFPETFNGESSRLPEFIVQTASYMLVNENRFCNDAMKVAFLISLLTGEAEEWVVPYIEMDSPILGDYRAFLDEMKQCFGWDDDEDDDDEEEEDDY
L107V: the “effect of a mutation on the interaction” value was “with no effect”.

Another assay covers variants of B7. The note with it: with znf24_human ZNF24, P17028.
Consider L107V, for which the “effect of a mutation on the interaction” value was “with no effect”.

Variants of B7 are the subject of the next assay. To be noted: with KRT15, P19012.
Take L107V: the “effect of a mutation on the interaction” value is given as “with no effect”.

Variants of B7 are the subject of the next assay. The note with it: with rbmx_human RBMX.
Turning to L107V, the “effect of a mutation on the interaction” value is “with no effect”.

Variants of B7 are the subject of a further assay. To be noted: with HNRNPK.
As to L107V, the “effect of a mutation on the interaction” value is “with no effect”.

In another assay the parent is B7. To be noted: with mdfi_human MDFI.
For the variant L107V, the “effect of a mutation on the interaction” value was “with no effect”.

Variants of B7 are the subject of the next assay. To be noted: with ZNF250, P15622-3.
Chain of ZNF250, P15622-3 (P15622 other isoform, or with tags, fused parts or gaps): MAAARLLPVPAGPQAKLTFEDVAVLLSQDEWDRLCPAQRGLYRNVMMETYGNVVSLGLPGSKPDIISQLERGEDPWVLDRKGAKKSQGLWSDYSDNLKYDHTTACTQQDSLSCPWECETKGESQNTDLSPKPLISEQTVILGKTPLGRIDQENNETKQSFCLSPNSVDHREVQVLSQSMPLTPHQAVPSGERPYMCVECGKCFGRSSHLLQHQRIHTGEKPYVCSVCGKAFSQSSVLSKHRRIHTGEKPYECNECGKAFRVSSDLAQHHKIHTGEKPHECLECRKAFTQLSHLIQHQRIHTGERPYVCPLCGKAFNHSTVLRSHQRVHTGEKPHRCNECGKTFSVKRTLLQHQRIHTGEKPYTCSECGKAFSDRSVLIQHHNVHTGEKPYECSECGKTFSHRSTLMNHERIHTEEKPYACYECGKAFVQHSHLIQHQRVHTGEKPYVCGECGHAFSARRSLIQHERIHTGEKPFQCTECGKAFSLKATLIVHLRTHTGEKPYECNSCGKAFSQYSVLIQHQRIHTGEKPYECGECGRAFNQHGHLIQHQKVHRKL
As to L107V, the “effect of a mutation on the interaction” value is reported as “with no effect”.

In another assay the parent is B7. To be noted: with zn587_human ZNF587, Q96SQ5.
For L107V, the “effect of a mutation on the interaction” value is listed as “with no effect”.

The next assay covers variants of B7. To be noted: with KRT40, Q6A162.
For L107V, the “effect of a mutation on the interaction” value is given as “with no effect”.

Variants of B7 are the subject of the next assay. To be noted: with nt2na_human NOTCH2NLA.
As to L107V, the “effect of a mutation on the interaction” value is on record as “with no effect”.

The next assay covers variants of B7. The note with it: with tfp11_human TFIP11, Q9UBB9.
Take L107V: the “effect of a mutation on the interaction” value is recorded as “with no effect”.

In another assay the parent is B7. To be noted: with goga2_human GOLGA2, Q08379.
Chain of goga2_human GOLGA2, Q08379 (Q08379 whole entry): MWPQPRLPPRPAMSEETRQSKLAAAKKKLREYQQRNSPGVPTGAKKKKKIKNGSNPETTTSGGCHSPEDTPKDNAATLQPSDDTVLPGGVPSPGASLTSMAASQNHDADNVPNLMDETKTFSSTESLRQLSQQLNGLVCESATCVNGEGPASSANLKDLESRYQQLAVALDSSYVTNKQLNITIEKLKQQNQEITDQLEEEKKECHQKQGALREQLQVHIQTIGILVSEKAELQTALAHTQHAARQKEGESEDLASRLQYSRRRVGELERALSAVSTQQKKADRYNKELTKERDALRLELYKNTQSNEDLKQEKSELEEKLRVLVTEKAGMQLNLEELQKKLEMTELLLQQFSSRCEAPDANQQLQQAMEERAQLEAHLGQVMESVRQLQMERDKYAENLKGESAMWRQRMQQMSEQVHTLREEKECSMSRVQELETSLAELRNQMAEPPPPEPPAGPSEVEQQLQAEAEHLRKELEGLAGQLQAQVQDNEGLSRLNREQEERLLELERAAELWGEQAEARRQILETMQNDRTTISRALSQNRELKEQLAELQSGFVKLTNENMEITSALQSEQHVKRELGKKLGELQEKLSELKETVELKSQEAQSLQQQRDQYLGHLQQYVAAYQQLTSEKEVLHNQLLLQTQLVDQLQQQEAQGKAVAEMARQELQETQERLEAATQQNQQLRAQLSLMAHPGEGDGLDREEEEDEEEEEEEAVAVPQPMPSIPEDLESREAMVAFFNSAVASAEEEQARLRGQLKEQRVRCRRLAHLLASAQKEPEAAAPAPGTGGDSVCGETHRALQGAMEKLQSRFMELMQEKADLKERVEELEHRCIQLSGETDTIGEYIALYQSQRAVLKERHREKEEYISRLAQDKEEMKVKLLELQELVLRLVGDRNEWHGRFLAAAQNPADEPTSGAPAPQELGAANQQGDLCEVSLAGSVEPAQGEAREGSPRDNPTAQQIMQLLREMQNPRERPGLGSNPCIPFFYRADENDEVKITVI
Take L107V: the “effect of a mutation on the interaction” value is listed as “with no effect”.

Variants of B7 are the subject of another assay. The note with it: with jkip2_human JAKMIP2, Q96AA8.
Chain of jkip2_human JAKMIP2, Q96AA8 (Q96AA8 whole entry): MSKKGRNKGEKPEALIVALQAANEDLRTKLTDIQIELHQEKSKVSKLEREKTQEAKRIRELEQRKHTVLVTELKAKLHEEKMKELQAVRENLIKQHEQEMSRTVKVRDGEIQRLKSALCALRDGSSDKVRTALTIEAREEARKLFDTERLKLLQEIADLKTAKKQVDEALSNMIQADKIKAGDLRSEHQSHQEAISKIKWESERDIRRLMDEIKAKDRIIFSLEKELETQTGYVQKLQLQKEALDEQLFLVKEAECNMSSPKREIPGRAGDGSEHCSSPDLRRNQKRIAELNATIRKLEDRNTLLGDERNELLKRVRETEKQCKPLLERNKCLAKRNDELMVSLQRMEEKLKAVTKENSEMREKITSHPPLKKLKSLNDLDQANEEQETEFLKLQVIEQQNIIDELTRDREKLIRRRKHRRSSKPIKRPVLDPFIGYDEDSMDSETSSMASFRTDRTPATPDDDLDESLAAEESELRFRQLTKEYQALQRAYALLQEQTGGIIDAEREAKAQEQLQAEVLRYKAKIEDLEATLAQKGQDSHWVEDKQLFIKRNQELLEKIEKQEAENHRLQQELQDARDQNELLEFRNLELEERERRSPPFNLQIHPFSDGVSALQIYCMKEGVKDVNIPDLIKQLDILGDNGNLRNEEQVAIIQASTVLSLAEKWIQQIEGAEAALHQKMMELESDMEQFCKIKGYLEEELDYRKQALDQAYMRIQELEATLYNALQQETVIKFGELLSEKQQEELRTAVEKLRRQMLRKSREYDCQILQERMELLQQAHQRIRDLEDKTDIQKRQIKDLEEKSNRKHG
Consider L107V, for which the “effect of a mutation on the interaction” value is on record as “with no effect”.

The variants in a further assay derive from B7. To be noted: with ccd33_human CCDC33, Q8N5R6.
Regarding L107V, the “effect of a mutation on the interaction” value was “with no effect”.

Variants of B7 are the subject of a further assay. The note with it: with zn417_human ZNF417, Q8TAU3.
Chain of zn417_human ZNF417, Q8TAU3 (Q8TAU3 whole entry): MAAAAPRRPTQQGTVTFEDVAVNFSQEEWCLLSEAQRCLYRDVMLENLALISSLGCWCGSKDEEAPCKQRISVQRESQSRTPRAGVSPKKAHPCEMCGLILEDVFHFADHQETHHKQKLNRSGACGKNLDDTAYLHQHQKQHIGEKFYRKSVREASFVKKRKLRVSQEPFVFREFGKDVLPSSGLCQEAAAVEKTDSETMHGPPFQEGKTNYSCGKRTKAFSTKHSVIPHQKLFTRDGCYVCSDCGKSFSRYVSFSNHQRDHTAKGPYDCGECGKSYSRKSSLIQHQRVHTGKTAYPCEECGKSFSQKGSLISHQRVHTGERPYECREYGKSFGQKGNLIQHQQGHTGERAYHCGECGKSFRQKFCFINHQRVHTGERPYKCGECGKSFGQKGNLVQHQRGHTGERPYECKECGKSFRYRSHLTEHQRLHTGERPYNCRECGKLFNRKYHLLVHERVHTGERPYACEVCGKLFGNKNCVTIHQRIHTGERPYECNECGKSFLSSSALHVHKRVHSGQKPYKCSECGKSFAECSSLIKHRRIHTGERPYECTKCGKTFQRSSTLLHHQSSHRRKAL
Regarding L107V, the “effect of a mutation on the interaction” value is on record as “with no effect”.

In a further assay the parent is B7. To be noted: with MTUS2, Q5JR59-3.
As for L107V, the “effect of a mutation on the interaction” value was “with no effect”.
